Assay results taken from the supplement of paper PMC7877785.
± gives the uncertainty stated by the source.

Assay: self-splicing fitness, log relative to wild type (ln ratio); higher = more splicing; Tetrahymena group I intron in knt gene, E. coli kanamycin selection, DiMSum; sequences stand for … in CUCUCU…GGAGGGAAAAGUUAUCAGGCAUGCACCUGGUAGCUAGUCUUUAAACCAAUAGAUUGCAUCGGUUUAAAAGGCAAGACCGUCAAAUUGCGGGAAAGGGGUCAACAGCCGUUCAGUACCAAGUCUCAGGGGAAACUUUGAGAUGGCCUUGCAAAGGGUAUGGUAAUAAGCUGACGGACAUGGUCCUAACCACGCAGCCAAGUCCUAAGUCAACAGAUCUUCUGUUGAUAUGGAUGCAGUUCACAGACUAAAUGUCGGUCGGGGAAGAUGUAUUCUUCUCAUAAGAUAUAGUCGGACCUCUCCUUAAUGGGAGCUAGCGGAUGAAGUGAUGCAACACUGGAGCCGCUGGGAACUAAUUUGUAUGCGAAAGUAUAUUGAUUAGUUUUGGAGUACUCGUGGUCG
How it was run: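 A randomised library covering all eight P1ex-region intron nucleotides was built with the intron in the knt kanamycin-resistance gene on pET-22b(+) and held in E. coli BL21(DE3). Cells were grown overnight at 37°C or 30°C on LB agar, with or without 25 μg/mL kanamycin, plus 100 μg/mL carbenicillin, 50 μM IPTG and 0.2% rhamnose, and pooled colonies were amplicon-sequenced on an Illumina HiSeq 2500. DiMSum fitness is the error-weighted combination of wild-type-normalised replicate fold changes, kanamycin versus none.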

| Sequence | self-splicing fitness (ln) (30 °C) | self-splicing fitness (ln) (37 °C) |
| --- | --- | --- |
| CGCGAGCAAUAUUACGCUUG | -3.06 ± 0.2 | -1.46 ± 0.22 |
| AUUUAGCAAUAUUACGUCGG | -3.82 ± 0.4 | -3.18 ± 0.32 |
| UCCUAGCAAUAUUACGUUAG | -3.49 ± 0.2 | -1.92 ± 0.23 |
| UCGCAGCAAUAUUACGGCGA | -3.35 ± 0.13 | -3 ± 0.17 |
| UGGAAGCAAUAUUACGGCAU | -1.94 ± 0.19 | -1.13 ± 0.19 |
| CAGAAGCAAUAUUACGGCGG | -0.0667 ± 0.084 | -0.292 ± 0.12 |
| CCGGAGCAAUAUUACGGCUG | -1.14 ± 0.15 | -0.43 ± 0.18 |
| CACGAGCAAUAUUACGAGGA | -2.27 ± 0.15 | -2.68 ± 0.16 |
| AGGGAGCAAUAUUACGCAGC | -2.92 ± 0.47 | – |
| AAUUAGCAAUAUUACGUGGG | -3.58 ± 0.24 | -3.64 ± 0.3 |
| GUCCAGCAAUAUUACGCGUU | -0.325 ± 0.078 | 0.304 ± 0.1 |
| AAUAAGCAAUAUUACGCGGC | -2.74 ± 0.24 | -2.03 ± 0.33 |
| AUCGAGCAAUAUUACGCGUU | -2.01 ± 0.17 | -1.1 ± 0.17 |
| UUUCAGCAAUAUUACGUGAA | -0.761 ± 0.061 | -0.17 ± 0.088 |
| ACCGAGCAAUAUUACGUUUU | -3.3 ± 0.15 | -2.59 ± 0.15 |
| GUCUAGCAAUAUUACGACCG | -1.42 ± 0.4 | -2.17 ± 0.33 |
| GAGGAGCAAUAUUACGUUAU | -3.32 ± 0.23 | -2.96 ± 0.32 |
| UAGCAGCAAUAUUACGAAAG | -2.58 ± 0.21 | -1.73 ± 0.25 |
| UUCUAGCAAUAUUACGUGCU | -3.37 ± 0.24 | -2.11 ± 0.24 |
| CCAUAGCAAUAUUACGGUAC | -3.2 ± 0.19 | -3.05 ± 0.27 |
| GAGCAGCAAUAUUACGGAGA | -4.02 ± 0.25 | -2.16 ± 0.16 |
| GGCAAGCAAUAUUACGAUGG | -2.61 ± 0.19 | -1.52 ± 0.16 |
| GGGUAGCAAUAUUACGCAUG | -1.68 ± 0.18 | -2.73 ± 0.32 |
| AAUAAGCAAUAUUACGUAUC | -1.6 ± 0.087 | -1.36 ± 0.11 |
| GAGUAGCAAUAUUACGAGCU | -1.64 ± 0.073 | -0.0858 ± 0.11 |

| Sequence | self-splicing fitness (ln) (30 °C) | self-splicing fitness (ln) (37 °C) |
| --- | --- | --- |
| GAGAAGCAAUAUUACGAUCA | -1.06 ± 0.15 | -0.469 ± 0.16 |
| ACAAAGCAAUAUUACGAUCU | -0.717 ± 0.067 | -0.0747 ± 0.083 |
| AACAAGCAAUAUUACGUGGU | -3.38 ± 0.12 | -1.57 ± 0.1 |
| AUUGAGCAAUAUUACGAGCC | -3.44 ± 0.26 | -2.48 ± 0.3 |
| GCAAAGCAAUAUUACGUCAC | -3.96 ± 0.23 | -2.56 ± 0.44 |
| CGGCAGCAAUAUUACGAUAA | -2.07 ± 0.21 | -1.96 ± 0.34 |
| CGCUAGCAAUAUUACGAUCG | -1.17 ± 0.12 | -0.644 ± 0.14 |
| GGAGAGCAAUAUUACGCGAA | -2.02 ± 0.24 | -2.72 ± 0.36 |
| UCGCAGCAAUAUUACGGAUU | -3.46 ± 0.17 | -2.51 ± 0.18 |
| AUGCAGCAAUAUUACGAAGU | -2 ± 0.15 | -1.75 ± 0.12 |
| UGCAAGCAAUAUUACGUAAU | -1.85 ± 0.089 | -1.86 ± 0.13 |
| AGUGAGCAAUAUUACGGGGC | – | -2.75 ± 0.29 |
| UACUAGCAAUAUUACGUGGC | -2.44 ± 0.18 | -2.91 ± 0.28 |
| ACUAAGCAAUAUUACGACGA | 0.0648 ± 0.13 | 0.181 ± 0.13 |
| AAACAGCAAUAUUACGAGGA | -4 ± 0.26 | -1.97 ± 0.13 |
| ACUGAGCAAUAUUACGCUAA | -3.41 ± 0.43 | -3.71 ± 0.39 |
| UGUAAGCAAUAUUACGCCGG | -1.46 ± 0.12 | -0.237 ± 0.13 |
| AAUUAGCAAUAUUACGUCGU | -0.641 ± 0.1 | -0.862 ± 0.12 |
| AGACAGCAAUAUUACGAGAU | -2.88 ± 0.1 | -2.85 ± 0.18 |
| UACGAGCAAUAUUACGCCAU | – | -1.84 ± 0.31 |
| CAGAAGCAAUAUUACGAUAG | -0.588 ± 0.075 | 0.256 ± 0.093 |
| CGAGAGCAAUAUUACGGUGG | -1.72 ± 0.34 | -2.24 ± 0.34 |
| CUUAAGCAAUAUUACGAGUA | -3.63 ± 0.24 | -1.94 ± 0.2 |
| GACGAGCAAUAUUACGUCUA | -2.4 ± 0.23 | -1.43 ± 0.13 |
